Source: patent US20160271248A1, “CXCR4 UP- AND DOWN-REGULATION FOR TREATMENT OF DISEASES OR DISORDERS” (priority 2013, published 2016)

Test system: neuronal FHC
Assay: gp120-mediated upregulation of neuronal FHC in bilaminar co-cultures with neutralizing antibodies or IL-1ra
Type: cell-based, rat
Conditions: IL-1β antibody 50 μg/mL, IL-1ra 1 μg/mL
Description: FIG. 13, comprising FIGS. 13A-13C, is a set of bar graphs and images illustrating that the presence of an IL-1β neutralizing antibody or IL-1 receptor antagonist abrogated gp120-mediated increases in FHC. Rat neurons cultured with a feeder layer of glia (8 DIV) were treated with either gp120IIIB (200 pM) or gp120BaL (200 pM) in the presence or absence of TNF-α antibody (40 μg/mL), IL-1β antibody (50 μg/mL) or IL-1ra (1 μg/mL). The presence of a TNF-α neutralizing antibody had no effect on the ability of gp120 to upregulate neuronal FHC. Neutralization or antagonism of IL-1β mitigated increases in neuronal FHC caused by gp120 in bilaminar cultures.
Rat cortical neurons were cultured in serum-free media in the presence of a glial feeder layer (Shimizu, et al., 2011, J. Vis. Exp. 57). This culture system largely preserves the in vivo environment, due to the presence of glia; however, it still enables direct investigation of neurons that can be separated by the glia before experiments. Selected studies were also performed in neurons grown in the absence of glia for the entire culture period, as indicated (Sengupta, et al., 2009, J. Neurosci. 29(8):2534-44). All experiments were conducted between 8-13 days in vitro (DIV).
Total protein extracts were obtained using standard protocols. […]

B1: IL-1ra: IL-1 receptor antagonist, an endogenous inhibitor of IL-1 signaling (protein, UniProt P25086 27-178, looked up)
Interleukin-1 receptor …: HPAGKRPCKMQAFRIWDTNQKTFYLRNNQLIAGYLQGPNTKLEEKIDMVPIDFRNVFLGIHGGKLCLSCVKSGDDTKLQLEEVNITDLNKNKEEDKRFTFIRSETGPTTSFESLACPGWFLCTTLEADHPVSLTNTPKEPCTVTKFYFQEDQ
effect on gp120-induced upregulation of neuronal FHC (gp120IIIB or gp120BaL 200 pM, TNF-α antibody 40 μg/mL): completely blocked | FHC protein levels, treatment alone (without gp120): no significant effect on FHC protein levels
